Experimental data from publication PMC4945072, “GNG Motifs Can Replace a GGG Stretch during G-Quadruplex Formation in a Context Dependent Manner”.

Molecular target: Nucleolin 284-710 (UniProt P19338 284-710)
Experiment: EMSA; 100 mM KCl; EMSA: oligo folded in binding buffer (composition not given) + 100 mM KCl, 37 C 1 h; nucleolin 100 ng, 4 C 2 h, 8% native gel + 100 mM KCl at 4 C; BG4 37 C 30 min, 6% native gel + 100 mM KCl at RT; CD: 1x PBS + 100 mM KCl
Conditions: protein: recombinant, tags: His, label: 5'-32P (EMSA)

Sequence of Nucleolin 284-710 (P19338 284-710): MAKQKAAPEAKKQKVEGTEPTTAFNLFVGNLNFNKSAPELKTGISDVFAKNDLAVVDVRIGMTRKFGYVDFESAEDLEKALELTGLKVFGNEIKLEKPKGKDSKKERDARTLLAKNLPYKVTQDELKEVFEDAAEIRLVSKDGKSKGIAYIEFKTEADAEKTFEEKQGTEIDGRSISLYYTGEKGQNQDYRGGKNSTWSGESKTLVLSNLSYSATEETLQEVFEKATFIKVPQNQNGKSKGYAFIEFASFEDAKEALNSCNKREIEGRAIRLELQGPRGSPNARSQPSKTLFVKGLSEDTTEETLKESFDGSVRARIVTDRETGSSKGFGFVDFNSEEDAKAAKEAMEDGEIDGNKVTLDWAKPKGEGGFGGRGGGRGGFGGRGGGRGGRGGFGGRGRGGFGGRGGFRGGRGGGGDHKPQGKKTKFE

| Binder | binding result (intramolecular parallel G4, two G stretches plus GNG motifs) | binding result (single strand) |
| --- | --- | --- |
| GGAGGTTTCCGGGGGCGCGGGGCGGAGC (structured_DNA) [KD52 (SHOX G-rich strand)] | binds | – |
| GCTCCGCCCCGCGCCCCCGGAAACCTCC (ssDNA) [KD53 (C-rich reverse complement of KD52)] | – | no binding |
